Laboratory results as given in paper PMC5714350.

Legend:
Conditions in all cases: other: dynamic light scattering
[1] = dynamic light scattering; FXN^81-210 with Fe2+ 6:1 for 15 min, then chelator (deferiprone, DFO or BIPY) at 3 times the amount of iron; room temperature
[2] = dynamic light scattering; FXN^81-210 with ferric iron (FeCl3 in HEPES pH 7.5), Fe3+:protein 6:1, 8:1, 10:1
[3] = dynamic light scattering; FXN^81-210 2.5 mg/ml (0.17 mM) with ammonium iron (II) sulfate, aerobic, Fe2+:protein 2:1, 4:1, 5:1, 6:1, 10:1; room temperature; profiles every 5 min for 2 h; volume distribution

Question: With “Human frataxin isoform 81–210 (FXN^81-210)” as the substance, how does the % of particles in the monomer range (hydrodynamic radius 1.6–2.1 nm), with iron (Fe2+ 6:1) and BIPY [1] read?
Answer: 92%

Question: What about the % of particles in the monomer range (hydrodynamic radius 1.6–2.1 nm), with iron (Fe2+ 6:1) and deferiprone [1] of the same substance?
Answer: 97%

Question: And the % of particles with hydrodynamic radius 6–8.5 nm (oligomers), with iron (Fe2+ 6:1) and BIPY [1]?
Answer: 8%

Question: And the % of particles with hydrodynamic radius 6–8.5 nm (oligomers), with iron (Fe2+ 6:1) and DFO [1]?
Answer: 95%

Question: And the % of particles with hydrodynamic radius 8.5–14 nm (oligomers), with iron (Fe2+ 6:1) and deferiprone [1]?
Answer: 3%

Question: What about the % of particles with hydrodynamic radius 15–25 nm (oligomers), with iron (Fe2+ 6:1) and DFO [1] of the same substance?
Answer: 5%

Question: What about the % of particles in the monomer range (hydrodynamic radius 1.6–3 nm), with iron (Fe3+ 6:1) [2] of the same substance?
Answer: 97%

Question: What about the % of particles with hydrodynamic radius 6–8.5 nm (oligomers), with iron (Fe3+ 8:1) [2] of the same substance?
Answer: 84.4%

Question: What about the % of particles with hydrodynamic radius 8.5–14 nm (oligomers), with iron (Fe3+ 6:1) [2] of the same substance?
Answer: 3%

Question: And the % of particles with hydrodynamic radius 8.5–14 nm (oligomers), with iron (Fe3+ 10:1) [2]?
Answer: 86.8%

Question: And the % of particles with hydrodynamic radius 15–25 nm (oligomers), with iron (Fe3+ 8:1) [2]?
Answer: 15.6%

Question: And the % of particles in the monomer range (hydrodynamic radius 1.6–2.1 nm), with iron (Fe2+ 6:1) [3]?
Answer: 92%

Question: And the % of particles with hydrodynamic radius 6–8.5 nm (oligomers), with iron (Fe2+ 6:1) [3]?
Answer: 8%

Question: What about the “% of particles with mean hydrodynamic radius of about 5 nm (oligomers), with iron (Fe2+ 10:1, 60 min)” value [3] of the same substance?
Answer: The major fraction of the oligomers (88%)
